# Experimental data published in patent publication US11591580B2, “K85 mutation-containing plant EPSPS mutant, and encoding gene and application thereof” (GEVOTO LLC, priority 2017, dated 2023).
# Substitutions are numbered along the chain they refer to.
# B1: R0: wild-type rice EPSPS represented by SEQ ID NO: 2; control group of Example 5 (protein, listed as Oryza sativa)
# chain: MASNAAAAAAKAEEIVLQPIREISGAVQLPGSKSLSNRILLLSALSEGTTVVDNLLNSEDVHYMLEALKALGLSVEADKVAKRAVVVGCGGKFPVEKDAKEEVQLFLGNAGTAMRPLTAAVTAAGGNATYVLDGVPRMRERPIGDLVVGLKQLGADVDCFLGTECPPVRVKGIGGLPGGKVKLSGSISSQYLSALLMAAPLALGDVEIEIIDKLISIPYVEMTLRLMERFGVKAEHSDSWDRFYIKGGQKYKSPGNAYVEGDASSASYFLAGAAITGGTVTVQGCGTTSLQGDVKFAEVLEMMGAKVTWTDTSVTVTGPPREPYGKKHLKAVDVNMNKMPDVAMTLAVVALFADGPTAIRDVASWRVKETERMVAIRTELTKLGASVEEGPDYCIITPPEKLNITAIDTYDDHRMAMAFSLAACADVPVTIRDPGCTRKTFPNYFDVLSTFVRN
# B2: R1: rice EPSPS mutant I, SEQ ID NO: 4, containing one mutation K100(85)I (protein)
# chain: B1 chain with K100I
# modifications: Oryza sativa EPSPS mutant with mutation K100(85)I
# B3: G0: wild-type soybean EPSPS represented by SEQ ID NO: 18; control group of Example 7 (protein)
# chain: MAAAEKPSTAPEIVLEPIKDISGTITLPGSKSLSNRILLLAALSEGTTVVDNLLYSEDIHYMLGALRTLGLRVEDDQTTKQAIVEGCGGLFPTIKESKDEINLFLGNAGTAMRPLTAAVVAAGGNASYVLDGVPRMRERPIGDLVAGLKQLGADVDCFLGTNCPPVRVNGKGGLPGGKVKLSGSVSSQYLTALLMAAPLALGDVEIEIVDKLISVPYVEMTLKLMERFGVSVEHSGDWDKFLVHGGQKYKSPGNAFVEGDASSASYFLAGAAVTGGTITVNGCGTSSLQGDVKFAEVLEKMGAKVTWSENSVTVTGPPQDSSGQKVLQGIDVNMNKMPDVAMTLAVVALFANGQTTIRDVASWRVKETERMIAICTELRKLGATVEEGPDYCVITPPEKLNVTAIDTYDDHRMAMAFSLAACGDVPVTIKDPGCTRKTFPDYFEVLERFTRH
# modifications: Glycine max
# Tests used:
# [1] = tested on: EPSPS defective E. coli (E. coli DH5α with EPSPS gene and C-P Lyase gene being knocked out, EDCE); test: growth of E. coli transformed by genes encoding rice EPSPS (wild type and mutants) in culture media containing different glyphosate concentrations (Example 5, FIG. 1); assay type: cell-based; details: for EPSPS enzyme activity: concluded from growth of EPSPS defective E. coli at 0 mM glyphosate; for growth of transformed E. coli: culture media containing 1 mM glyphosate
# Excerpt: E. coli transformed by the gene (SEQ ID NO: 3) encoding the rice EPSPS mutant I provided in Example 1 was taken as Experiment Group 1 (only containing a mutation K100(85)I).
# E. coli transformed by the gene (with a nucleotide sequence represented by SEQ ID NO: 5, and an amino acid sequence of the encoded rice EPSPS mutant is represented by SEQ ID NO: 6) encoding the rice EPSPS mutant that contains only mutations G111(96)A and P116(101)S but no mutation K100(85)I was taken as Experiment Group 2.
# E. coli transformed by the gene (SEQ ID NO: 7) encoding the rice EPSPS mutant II provided in Example 2 was taken as Experiment Group 3 (the encoded rice EPSPS mutant II contained three mutations: K100(85)I, G111(96)A and P116(101)S).
# E. coli transformed by the gene (SEQ ID NO: 1, which encoded the wild-type rice EPSPS represented by SEQ ID NO: 2) encoding the wild-type rice EPSPS was taken as a control group.
# The glyphosate resistance of the gene encoding the rice EPSPS mutant I and the rice EPSPS mutant I encoded thereby in E. coli, and the glyphosate resistance of the gene encoding the rice EPSPS mutant II and the rice EPSPS mutant II encoded thereby in E. coli were verified by detecting the growth situation of the transformed E. coli in culture media (culture media obtained by adding a certain concentration of antibiotics Spec (Spectinomycin), Gen (Gentamycin), Amp (Ampicillin) and glyphosate of different concentrations, with M9 as a basal culture medium) containing different glyphosate concentrations (0 mM, 1 mM, 10 mM, and 50 mM).
# In the above, the E. coli used was double knockout E. coli, namely, EPSPS defective E. coli (E. coli DH5α with EPSPS gene and C-P Lyase gene being knocked out, named as EDCE, wherein for a preparation method thereof, reference can be made to a Chinese invention patent with the filing number CN2016103256926).
# The detection method is a method commonly known in the art, and is briefly described as follows: synthesizing the gene encoding the rice EPSPS mutant by using a chemical synthesis method, introducing enzyme sites (Pac1 and Sbf1) at two ends thereof, connecting to an expression vector (for example, a pADV5 vector, the structure of which is shown in FIG. 4) that had undergone the same restriction enzyme digestion treatment under the action of ligase after restriction enzyme digestion, then transforming double knockout E. coli, picking positive colonies after verification, inoculating the positive colonies to a culture medium containing glyphosate for growth, and observing the growth situation.
# Results are as shown in FIG. 1 (wherein R0 is a control group, R1 is Experiment Group 1, R2 is Experiment Group 2, and R3 is Experiment Group 3).
# [2] = tested on: transgenic rice seedlings; test: glyphosate resistance of the EPSPS mutant in transgenic rice plants sprayed with glyphosate (Example 8, Table 1); assay type: in vivo, rice (Nipponbare); details: for glyphosate resistance of transformed rice seedlings (in words): glyphosate sprayed at the 1× dosage
# Excerpt: A method for detecting the glyphosate resistance of the G1 soybean EPSPS mutant (SEQ ID NO: 20), G2 soybean EPSPS mutant (SEQ ID NO: 22) and G3 soybean EPSPS mutant (SEQ ID NO: 24) provided in Example 7, the R1 rice EPSPS mutant (SEQ ID NO: 4) provided in Example 5, and the Z1 maize EPSPS mutant (SEQ ID NO: 12) provided in Example 6 in the transgenic rice is as follows:
# The plasmids (containing the EPSPS mutant gene) of the monoclonal resistant bacteria of pADV5-EPSPS in Examples 1-7 were extracted by a conventional method, followed by double enzyme digestion by Pac1 and BstEII, the small fragments were collected, and then the small fragments were ligated, using T4 DNA ligase, to the pGVP1 vectors that had undergone the same double enzyme digestion, to obtain a pGVP1-EPSPS vector having a structure as shown in FIG. 8.
# In the present example, the glyphosate resistance of the EPSPS mutant in transgenic rice plants were verified. An experiment method is as follows:
# The transgenic rice seedlings transplanted were uniformly arranged in a same experiment area (preventing leaves from overlapping). The areas occupied by the experiment groups and the control group were calculated, and according to the areas, glyphosate was sprayed at a 1× dosage of 1060 g/hectare (0.106 g/m^2). 2× dosage was 2120 g/hectare, 5× dosage was 5300 g/hectare, and 20× dosage was 21200 g/hectare.
# Commercially available Roundup® 41% ammonium glyphosate was used. Roundup® ammonium glyphosate with corresponding volumes was taken according to the above sprayed concentrations, then diluted with 20 times of volume of water, and then uniformly sprayed on the plants in the experiment groups and the control group. After leaf surfaces were dry, the plants were moved into greenhouse or outdoor to cultivate.
# After the glyphosate was sprayed at the 1× dosage, growth states of the plants in each group were observed and recorded on a 10th day, and glyphosate was sprayed to the survived plants at the 2× dosage. The growth states of the plants in each group were observed and recorded 10 days later, and glyphosate was sprayed to the survived plants at the 5× dosage. The growth states of the plants in each group were observed and recorded 10 days later, and glyphosate was sprayed to the survived plants at the 20× dosage. The growth states of the plants in each group were observed and recorded 10 days later, and results are shown in Table 1, wherein corresponding numbers of plants denoted by −, +, ++ and +++ are listed, and “%++&+++” is percentage of plant having medium and high glyphosate resistance to the total number of plants observed.
# [3] = tested on: double knockout E. coli; test: growth of E. coli transformed by genes encoding soybean EPSPS (wild type and mutants) in culture media containing different glyphosate concentrations (Example 7, FIG. 3); assay type: cell-based; details: culture media containing 1 mM glyphosate
# [4] = 1X dosage (1060 g/hectare glyphosate), recorded on 10th day
# [5] = 2X dosage (2120 g/hectare) sprayed to plants surviving 1X, recorded 10 days later
# [6] = 5X dosage (5300 g/hectare) sprayed to plants surviving 2X, recorded 10 days later
# [7] = 20X dosage (21200 g/hectare) sprayed to plants surviving 5X, recorded 10 days later
Molecule,"% ++&+++ (percentage of plant having medium and high glyphosate resistance to the total number of plants observed) [2, 4] [%]","number of plants with resistance + (low glyphosate resistance) [2, 4]","number of plants with resistance ++ (medium glyphosate resistance) [2, 4]","number of plants with resistance +++ (high glyphosate resistance) [2, 4]","number of plants with resistance − (no glyphosate resistance) [2, 4]","% ++&+++ (percentage of plant having medium and high glyphosate resistance to the total number of plants observed) [2, 5] [%]","number of plants with resistance + (low glyphosate resistance) [2, 5]","number of plants with resistance ++ (medium glyphosate resistance) [2, 5]","number of plants with resistance +++ (high glyphosate resistance) [2, 5]","number of plants with resistance − (no glyphosate resistance) [2, 5]","% ++&+++ (percentage of plant having medium and high glyphosate resistance to the total number of plants observed) [2, 6] [%]","number of plants with resistance + (low glyphosate resistance) [2, 6]","number of plants with resistance ++ (medium glyphosate resistance) [2, 6]","number of plants with resistance +++ (high glyphosate resistance) [2, 6]","number of plants with resistance − (no glyphosate resistance) [2, 6]","% ++&+++ (percentage of plant having medium and high glyphosate resistance to the total number of plants observed) [2, 7] [%]","number of plants with resistance + (low glyphosate resistance) [2, 7]","number of plants with resistance ++ (medium glyphosate resistance) [2, 7]","number of plants with resistance +++ (high glyphosate resistance) [2, 7]","number of plants with resistance − (no glyphosate resistance) [2, 7]",also measured
B1,0.0,1,0,0,30,0.0,0,0,0,31,0.0,0,0,0,31,0.0,0,0,0,31,"EPSPS enzyme activity [1]: normal EPSPS enzyme activity; growth of transformed E. coli [1]: grew slowly; glyphosate resistance of transformed rice seedlings (in words) [2]: had no resistance, one was seriously damaged, and all the others died"
B2,88.9,0,0,16,2,27.8,5,4,1,8,11.1,3,2,0,13,0.0,2,0,0,16,EPSPS enzyme activity [1]: normal EPSPS enzyme activity; growth of transformed E. coli [1]: obviously grew better than the control group (R0); glyphosate resistance of transformed rice seedlings (in words) [2]: obviously superior to that of the rice seedlings transformed by R0
B3,0.0,0,0,0,36,0.0,0,0,0,36,0.0,0,0,0,36,0.0,0,0,0,36,growth of transformed E. coli [3]: substantially could not grow; glyphosate resistance of transformed rice seedlings (in words) [2]: had no resistance and died
